Results taken from paper PMC4536637, “Unique Toll-Like Receptor 4 Activation by NAMPT/PBEF Induces NFκB Signaling and Inflammatory Lung Injury” (Scientific Reports, 2015).

Biological target: T1, recombinant human TLR4 (Toll-like receptor 4) (human, UniProt O00206 24-631)
T1 construct: Toll-like receptor 4, human, recombinant; No catalogue number is printed; also called rTLR4; source: bought: R&D Systems
Test: SPR; Bio-Rad ProteOn XPR36, GLC chip; Bethyl PBEF antibody covalently immobilised (5000 RU); rPBEF only (100 nM), rTLR4 only (1 uM) and pre-mixed rPBEF-rTLR4 injected over the antibody surface; PBST (10 mM phosphate, 150 mM NaCl, 0.05% Tween20, pH 7.4)
Conditions: both partners purified

T1 sequence (O00206 24-631): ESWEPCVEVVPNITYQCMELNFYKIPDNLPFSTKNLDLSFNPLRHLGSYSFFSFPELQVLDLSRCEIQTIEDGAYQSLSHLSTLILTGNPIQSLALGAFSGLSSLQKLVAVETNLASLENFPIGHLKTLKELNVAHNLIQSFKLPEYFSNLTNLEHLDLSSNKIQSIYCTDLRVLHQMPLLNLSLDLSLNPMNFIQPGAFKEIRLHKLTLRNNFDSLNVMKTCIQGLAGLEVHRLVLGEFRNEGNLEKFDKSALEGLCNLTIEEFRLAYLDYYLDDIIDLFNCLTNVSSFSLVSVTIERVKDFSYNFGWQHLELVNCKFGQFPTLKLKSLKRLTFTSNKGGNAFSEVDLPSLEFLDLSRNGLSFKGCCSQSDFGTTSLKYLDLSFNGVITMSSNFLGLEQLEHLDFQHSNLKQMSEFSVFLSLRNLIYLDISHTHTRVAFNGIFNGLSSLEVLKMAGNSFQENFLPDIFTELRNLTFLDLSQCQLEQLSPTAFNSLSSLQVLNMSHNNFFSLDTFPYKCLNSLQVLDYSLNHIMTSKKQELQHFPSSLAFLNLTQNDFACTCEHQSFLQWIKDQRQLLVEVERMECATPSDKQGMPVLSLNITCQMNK

B1: recombinant human NAMPT/PBEF (nicotinamide phosphoribosyl-transferase / pre-B cell colony-enhancing factor) (natural protein, UniProt P43490 1-491, looked up)
chain: MNPAAEAEFNILLATDSYKVTHYKQYPPNTSKVYSYFECREKKTENSKLRKVKYEETVFYGLQYILNKYLKGKVVTKEKIQEAKDVYKEHFQDDVFNEKGWNYILEKYDGHLPIEIKAVPEGFVIPRGNVLFTVENTDPECYWLTNWIETILVQSWYPITVATNSREQKKILAKYLLETSGNLDGLEYKLHDFGYRGVSSQETAGIGASAHLVNFKGTDTVAGLALIKKYYGTKDPVPGYSVPAAEHSTITAWGKDHEKDAFEHIVTQFSSVPVSVVSDSYDIYNACEKIWGEDLRHLIVSRSTQAPLIIRPDSGNPLDTVLKVLEILGKKFPVTENSKGYKLLPPYLRVIQGDGVDINTLQEIVEGMKQKMWSIENIAFGSGGGLLQKLTRDLLNCSFKCSYVVTNGLGINVFKDPVADPNKRSKKGRLSLHRTPAGNFVTLEEGKGDLEEYGQDLLHTVFKNGKVTKSYSFDEIRKNAQLNIELEAAHH
notes: nicotinamide phosphoribosyl-transferase (NAMPT/PBEF/visfatin), human, bioactive non-denatured recombinant protein; also called rPBEF; visfatin; source: bought: MBL International
binding result: binds
